Columns and labels:
colicin E9 DNase (ColE9) = biological target: T1, colicin E9 DNase (ColE9) (E. coli, UniProt P09883 449-582); assay: not stated (running text of Example 4)
T1 sequence: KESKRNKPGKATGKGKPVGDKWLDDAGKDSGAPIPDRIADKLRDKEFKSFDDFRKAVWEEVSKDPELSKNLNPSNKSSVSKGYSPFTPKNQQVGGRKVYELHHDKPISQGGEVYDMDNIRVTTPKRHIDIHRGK

colicin E7 DNase (ColE7) [1] = biological target: T2, colicin E7 DNase (ColE7) (E. coli, UniProt Q47112 444-576); assay: not stated (running text of Example 4)
T2 sequence: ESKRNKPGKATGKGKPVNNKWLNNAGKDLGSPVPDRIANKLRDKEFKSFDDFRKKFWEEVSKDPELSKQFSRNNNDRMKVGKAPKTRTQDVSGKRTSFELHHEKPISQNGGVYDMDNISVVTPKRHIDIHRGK

colicin E7 DNase (ColE7) [2] = biological target: T2, colicin E7 DNase (ColE7); assay: affinity measurements (Kleanthous laboratory; method not stated)
colicin E7 DNase (ColE7) [3] = biological target: T2, colicin E7 DNase (ColE7); assay: cell-based or functional assay

B1: immunity protein 7 (Im7), wild type (other)
chain: MELKNSISDYTEAEFVQLLKEIEKENVAATDDVLDVLLEHFVKITEHPDGTDLIYYPSDNRDDSPEGIVKEIKEWRAANGKPGFKQG
notes: also called wild-type Im7
- Kd (colicin E9 DNase (ColE9)): 56000 pM
- Kd (colicin E7 DNase (ColE7) [1]): 0.00079 pM
- Kd (colicin E7 DNase (ColE7) [2]): ≤ 0.01 pM
- koff (colicin E7 DNase (ColE7) [2]): ≤ 1e-05 s⁻¹
- kon (colicin E7 DNase (ColE7) [2]): 7.6e+08 M⁻¹ s⁻¹
- ColE7 concentration at which full protection was observed, in vivo protection assay, 0.05 mM IPTG (colicin E7 DNase (ColE7) [3]): > 100 µM
- ColE7 concentration at which full protection was observed, in vivo protection assay, 1 mM IPTG (colicin E7 DNase (ColE7) [3]): > 100 µM
- ColE7 concentration at which full protection was observed, in vivo protection assay, w/o IPTG (colicin E7 DNase (ColE7) [3]): 100 µM

B2: in vitro evolved Im9 variant #8 (Round 8, high stringency) (designed binder)
chain: MELKHRISDYTEAEFLQLVTTICDANASSEEELDKLITHFEEMTEHPSGSDLIYWPKEGDDDSPSGIVNTVKQWRAANGKSGFKQG
notes: also called Evolved Im variant#8; evolved variant 8
- Kd (colicin E7 DNase (ColE7) [2]): 3.85 pM
- koff (colicin E7 DNase (ColE7) [2]): 0.0032 s⁻¹
- kon (colicin E7 DNase (ColE7) [2]): 8.3e+08 M⁻¹ s⁻¹
